# Target: 4-HIL dehydrogenase (HILDH) from Bacillus thuringiensis 2e2, wild type (Bacillus thuringiensis 2e2)
# Experiment: crystal structure; HILDH with 10 mM NADH, sitting-drop vapor diffusion at 20 °C, 30% PEG 400, 0.1 M acetate pH 4.5, 0.2 M calcium acetate; 2.20 Å
substance,measurement,value
"4-HIL dehydrogenase (HILDH) from Bacillus thuringiensis 2e2, wild type (enzyme)",stoichiometry N,4

# Reference: paper PMC5651801
